Test results taken from US20230002478A1.

Assays:
FcγR2a R167 [1] = molecular target: FcγR2a R167 (UniProt P12318); experiment: SPR, kinetic fit, second of two runs
FcγR2a H167 [2] = molecular target: FcγR2a H167 (UniProt P12318); experiment: SPR, kinetic fit
FcγR2B/C [3] = molecular target: FcγR2B/C (UniProt P31994); experiment: SPR, kinetic fit
FcγR3A 176F [4] = molecular target: FcγR3A 176F (UniProt P08637); experiment: SPR, kinetic fit
FcγR3A 176V [5] = molecular target: FcγR3A 176V (UniProt P08637); experiment: SPR, kinetic fit
FcγR2a R167 [6] = molecular target: FcγR2a R167 (UniProt P12318); experiment: SPR, kinetic fit, first of two runs
[7] = molecular target: Fc-gamma Receptor 1 (FcγR1) (UniProt P12314)
FcγR2a R167 [8] = molecular target: FcγR2a R167 (UniProt P12318); experiment: SPR, steady state fit, first of two runs
FcγR2B/C [9] = molecular target: FcγR2B/C (UniProt P31994); experiment: SPR, experimental Rmax / theoretical Rmax
FcγR3A 176F [10] = molecular target: FcγR3A 176F (UniProt P08637); experiment: SPR, experimental Rmax / theoretical Rmax
[11] = molecular target: Fc-gamma Receptor 1 (FcγR1) (UniProt P12314); experiment: SPR, experimental Rmax / theoretical Rmax
[12] = molecular target: neonatal Fc receptor (FcRn) (Human) (UniProt P55899); experiment: SPR at pH 6.0, experimental Rmax / theoretical Rmax
[13] = molecular target: neonatal Fc receptor (FcRn) (Human) (UniProt P55899); experiment: SPR at pH 6.0, steady state fit
FcγR2a R167 [14] = molecular target: FcγR2a R167 (UniProt P12318); experiment: SPR, steady state fit, second of two runs
[15] = molecular target: neonatal Fc receptor (FcRn) (Human) (UniProt P55899); experiment: SPR at pH 6.0, kinetic fit
[16] = molecular target: biotinylated SARS-CoV-2 spike RBD (Ancestral) (SARS-CoV-2) (UniProt P0DTC2); experiment: AlphaLISA, inhibition of ACE2-muFc / biotinylated spike complex
FcγR2a H167 [17] = molecular target: FcγR2a H167 (UniProt P12318); experiment: SPR, steady state fit
FcγR2B/C [18] = molecular target: FcγR2B/C (UniProt P31994); experiment: SPR, steady state fit
FcγR3A 176F [19] = molecular target: FcγR3A 176F (UniProt P08637); experiment: SPR, steady state fit
FcγR3A 176V [20] = molecular target: FcγR3A 176V (UniProt P08637); experiment: SPR, steady state fit

FcγR2a R167, sequence (P12318 36-218 H167R): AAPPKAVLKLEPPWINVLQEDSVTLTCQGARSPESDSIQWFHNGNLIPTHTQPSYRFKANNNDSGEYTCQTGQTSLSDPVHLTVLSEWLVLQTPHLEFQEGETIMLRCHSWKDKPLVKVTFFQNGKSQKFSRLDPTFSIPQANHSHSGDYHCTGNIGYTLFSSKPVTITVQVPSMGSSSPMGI
FcγR3A 176F, sequence (P08637 17-208): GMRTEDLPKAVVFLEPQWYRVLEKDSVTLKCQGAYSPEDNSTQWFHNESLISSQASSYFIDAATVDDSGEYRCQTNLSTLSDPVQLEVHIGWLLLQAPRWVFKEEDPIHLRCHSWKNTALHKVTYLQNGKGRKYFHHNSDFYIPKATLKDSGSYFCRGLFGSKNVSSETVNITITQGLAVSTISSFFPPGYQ
FcγR2B/C, sequence (P31994 46-217): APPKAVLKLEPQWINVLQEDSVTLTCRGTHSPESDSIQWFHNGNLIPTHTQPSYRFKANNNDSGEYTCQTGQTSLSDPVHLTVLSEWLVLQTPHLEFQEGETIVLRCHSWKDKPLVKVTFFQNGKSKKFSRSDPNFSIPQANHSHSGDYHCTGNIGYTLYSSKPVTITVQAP
neonatal Fc receptor (FcRn) (Human), sequence (P55899 24-297): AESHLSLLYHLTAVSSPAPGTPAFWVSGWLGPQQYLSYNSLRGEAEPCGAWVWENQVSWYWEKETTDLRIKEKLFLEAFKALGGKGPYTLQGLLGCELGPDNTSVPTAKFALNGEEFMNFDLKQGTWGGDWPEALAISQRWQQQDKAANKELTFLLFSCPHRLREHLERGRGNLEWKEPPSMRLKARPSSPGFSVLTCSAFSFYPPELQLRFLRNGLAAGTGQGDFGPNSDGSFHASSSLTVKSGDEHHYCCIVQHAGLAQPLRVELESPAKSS
FcγR2a H167, sequence (P12318 36-218): as the sequence (P12318 36-218 H167R) above, with R132H counted along it
FcγR3A 176V, sequence (P08637 17-208 F176V): as the sequence (P08637 17-208) above, with F160V counted along it
Fc-gamma Receptor 1 (FcγR1), sequence (P12314 16-288): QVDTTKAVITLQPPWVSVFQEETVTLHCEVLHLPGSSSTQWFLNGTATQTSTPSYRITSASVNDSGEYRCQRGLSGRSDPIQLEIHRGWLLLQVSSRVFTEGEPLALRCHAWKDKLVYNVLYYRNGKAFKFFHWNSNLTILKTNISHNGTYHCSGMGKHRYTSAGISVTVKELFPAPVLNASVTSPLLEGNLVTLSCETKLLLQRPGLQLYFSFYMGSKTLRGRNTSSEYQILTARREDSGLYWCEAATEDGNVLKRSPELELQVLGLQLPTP

Substance: anti-RBD neutralizing monoclonal antibody (human IgG1) from Acro Biosystems (SAD-S35)
- Kd (FcγR2a R167 [1]): 650 nM
- Kd (FcγR2a H167 [2]): 462 nM
- Kd (FcγR2B/C [3]): 1360 nM
- Kd (FcγR3A 176F [4]): 1110 nM
- Kd (FcγR3A 176V [5]): 161 nM
- Kd (FcγR2a R167 [6]): 596 nM
- Kd [7]: 0.46 nM
- Kd (FcγR2a R167 [8]): 636 nM
- % Activity (FcγR2B/C [9]): 93%
- % Activity (FcγR3A 176F [10]): 92%
- % Activity [11]: 120%
- % Activity [12]: 116%
- Kd [13]: 86.5 nM
- Kd (FcγR2a R167 [14]): 640 nM
- Kd [15]: 81.1 nM
- IC50 [16]: 6.8 nM
- Kd (FcγR2a H167 [17]): 537 nM
- Kd (FcγR2B/C [18]): 1590 nM
- Kd (FcγR3A 176F [19]): 796 nM
- Kd (FcγR3A 176V [20]): 210 nM
